experiment: soluble on expression in E. coli; label from the status in PepcDB or PDB records

Sequence	soluble on expression in E. coli
MSTFFQQTAQAMIAKHIDRFPLLKLDQVIDWQPIEQYLNRQKTRYLRDHRGRPACPLLSMFKAVLLGQWHNLSDPELEHSLITRIDFNLFCRFDELSIPDYSTLCRYRNRLAQDDTLSELLELINRQLTEKGLKVEKASAAVVDATIIQTVGSKQRQAIEVDEEGQVSGQTTLSKDKNARWTKKNSLYKLGYKQHTRTDAEGYIEKLHITPANAHECKHLSPLLEGLPEGTTIYADKGYDSAENRQHLEEHQLQDGIMRKACRNRPLTETQTKRNRYLSKTRYVVEQSFGTLHRKFRYARAAYFGLICARCRLKGSPDA	not soluble
MSKDEILKLGREEFFKSVKMEYRPYFEPYETPESVYPDGSINIDCTCLHSALAHRCGYLIRDALVCFNASKTTPRGLDCEKEFVAHAICTEEANNKS	not soluble
MVASYEIEFIGEGEVAGILREALRTDSRVESFEEFERGFKLRLVGAKRRITIVCKGSVQSDDCLLIVNARKMPENGGIALNADKIAERCGSKPEIAMLGAIAKLGVVDLKRLMSVIYREMGYGDVLAVKKGFEATNI	not soluble
MNTENPIEKPFRKTGDPVDLTSESPLHPRRKSRRIMVGPVPVGGGAPISVQSMTNTLTANVPATLQQIAELTAAGCDIVRVAVPSQDDADALPEICRKSPIPVIADIHFQSKYVFQAIDAGCAAVRVNPGNIRKFDEVGPDICKAATDAGISLRIGVNAGSLDKELYAKYGGPTPEALVASALKEAHMFEDVGFHDFKISVKHHDVITMVETYRLLASKGDWPLHLGVTEAGPAWQGTIKSCLAFGALLAEGIGDTIRVSLSAPPAEEVKVGCKLLEYMGLRPRKFDIISCPSCGRAQVDVIQLASAVTEGLKDVTAPIRVAVMGCIVNGPGEAREADLGVASGNGKGQIFIKGKVIKTVPEDQIVDTLLTIANDIAAQMEADGQVPVNSTGPVVVPIQHPGHLEHHHHHH	not soluble
MREPYYKKLLGIKNYLIRKNYPEELEILIPKYVEENKELRGCIDCLSCLSVCPAREVSDYPGPTFMRQLARFAFDKRDEDGREITAYFENIYNCTTCAKCVEVCPKEIDIVHRAIEKLRALAFSKGYYIENHLEHHHHHH	not soluble
MGSDKIHHHHHHMDNDSTPRGTVCVTGATGYVGGRLVPRLLDHGWRVRALVRTPAKLLCRPWARHPRLDIIRGDLDDACSLVPALEGCDAVFYLVHSMNPHVTGRDTFAKADRAAASNMVRACDEARPGRIIYLSGLVPEGEELSPHLRSRAEVADILARGETPLTVLRAAQILGSGSASFEMVRYLVDRLPVMLTPRWVHSLCQPIAISNVLGYLEGCLDHPETMGQTYDIGGPDILSYRELFDIFAEVAQLRRRTIIPVPVLSPELSAHWINLVTPIPKALATPLIQGLRNRVVCADDRIRDIIPQRLLSCREAIGKALDRVREQSVPTCWTDAGRPDMPEWMTCGDASYAGGDLLECAYAIQVEAPPETVWKPVSAIGGETGWYHGDLLWRLRGMLDKLVGGPGLRRGRRHPTDIGVGDALDFWRVLDVRPGERLLLLAEMKVPGDALLEFRLAPTATGGTELWMLSWFLPRGLAGLAYWWALYPLHKGLFKGMLCGLAAATGAPVSREPWALPPRREFACALPLTDASAPGRRDTTAQ	not soluble
MSLKKLLVIRNDKIGDFMLAWPSFAMLKASLPDCHITALVPKYTAALAELCPWIDAVIIDPGQQADKAQHKQLVQTVKAQQFDASINLFSTMYNALLVWKARIPYRLAPATKLAQIFYQHRIKQKRSQSAKPEYEYNLDLVRAFLRDIGQPIIEPNAPYLTFPAEQLAAQRSKLAEQLDIGPDKAWLFVHAGSGGSANNLSLEQYCELVTGVMDEHKQVVLTAGPGEEEKAAQLQSLLAEQGVLAALYAKNDGLVDFTRSLACAQLFIAGSTGPLHIAAALDVPTVGFFPAKRSATPLRWRPLNSQGKHIAFCPPPADDKANQENMGRIDMKSVLTELAPWLRSVQLEGHHHHHH	soluble
MSKIEIFEAAGCCATSSVVVSDEAVKWNASAEWAKKHGVNIQRYSLAKNPQQFLNTPVIRAFLNTSGMESLPATLLDGQLVMAGKLPSREDIARWAG	soluble
MGSDKIHHHHHHMIFVPNENNDPRVNLAIETYLLTEMPLDEPILLFYINEPSIIIGRNQNTIEEINKEYVDEHGIHVVRRLSGGGAVYHDHGNLNFSFIMPDDGNSFRDFAKVTQPIIQALHDLGVEGAELKGRNDLVINDMKFSGNAMYATNGRMFAHGTLMFDSDIDEVVNTLKVRKDKIESKGIKSVRSRVTNIKPFLSEDKQEMTTEEFRQEILLKIFGVDSIDQVKTYELTDQDWAAINKISEQYYRNWDWNYGKSPAFNLERRHRFPIGSIEMKMNVADGAIQEIKIFGDFFGLGEIKDVEDILTGVKYDKASLEEAIDQIDVKKYFGNIEKEDLLGLIY	not soluble
MSLKLLHERMMHSLARYPRQTAVVDEQDALSYEALELRIREFVAMLCALGVGQGQRILLWAHKSVDLVAVMQAALRLGVVYVPVDPLSPVSRLEKIAGDSQAVLVLCTAARLEELAGSALAQVRSVVLDDPASAGYWRNIDTGSSVVPTLAIQPDDLAYILYTSGSTGVPKGVALSHGNALAFVDWACERYCFQPGERFANHAPLHFDLSVLDIYCALNVGATVCLVPESIAFSPRLLTDFIRQHEISIWYSVPSVLMMMMQDGDLLSDIQDTLRVLLFAGEPFPVKHLRDLRAAYADVRLANLFGPTETNVCTAFEVGAIDPERVLPVPIGTAASGNQVWAQKPDGSRCAVGEEGELVVQGPTVMLGYFAKPAQEGPYKTGDMVRQRPDGNYEYLGRRDDMLKVRGNRIERGEVEAALLAHPQVSEAAVLVVGEGMNAQLWGVLVAHTRDALSLIDLKRHCAQRLPRYMIIDKVLCLDALPRNANGKVDRFALARQVEGHHHHHH	soluble
MIQFKNISKHYQLKGQTIHALDQINLDIPAGSIFGIIGYSGAGKSTLIRLINLLERPTHGQIIINQKDFTALNAQSLRQERANIGMIFQHFNLLQTKTVAANIEMPLKLLGYSKIEREKRLMELLDFIDLTHKKDAFPDELSGGQKQRVGIARALANHPKILLCDEATSALDPQTTKSVLALLKKINKEQGITIVMVTHEMDVIESICDHVAVMESGHVIETGPTVEIFSNPQHPTTKTFIQTVLQQHLPVNILSKLEHQHHHSIYRLQFLGKSAQEPVIQSMIKQFDISLNILFANMTEIDGTVIGQMFVQLLGDDTLIQQAIEFLERHGVSVNQSGEQV	not soluble
MGSDKIHHHHHHMSNDETVEKVTQQVSELKSTDVKEQVVTPWDVEGGVDEQGRAQNIDYDKLIKQFGTKPVNEETLKRFKQVTGREPHHFLRKGLFFSERDFTKILDLYEQGKPFFLYTGRGPSSDSMHLGHMIPFVFTKWLQEVFDVPLVIELTDDEKFLFKHKLTINDVKNFARENAKDIIAVGFDPKNTFIFSDLQYMGGAFYETVVRVSRQITGSTAKAVFGFNDSDCIGKFHFASIQIATAFPSSFPNVLGLPDKTPCLIPCAIDQDPYFRVCRDVADKLKYSKPALLHSRFFPALQGSTTKMSASDDTTAIFMTDTPKQIQKKINKYAFSGGQVSADLHRELGGNPDVDVAYQYLSFFKDDDVFLKECYDKYKSGELLSGEMKKLCIETLQEFVKAFQERRAQVDEETLDKFMVPHKLVWGEKERLVAPKPKTKQEKK	not soluble
AHHHHHHGSQRALVTLTPSESKRLIAKAVVAMDEVQKALKNGFIYIATGTTAAYIAEELLGEKIEKEKWTVGTISKGRTCVTPKTTWPKHLVLYKGKLFEGEPLEALKEMGPEDVFIKGGNAIDINWNVAVFAAAPDGGTIGKTFGWTITKGVFTITPISLEKFVPTPVKESAKLTGIYSFNWGTGLYAALVPIPHAHPVTEVEAYRILAGVEAIPIAAGGAGGAEGSVTLVLEGDDENMEKAKEITKAVKGEPPLEPYTEDCSICPFAKICGLGSGSF	not soluble
MARKRRAARVKDKWTLKKWFTLIAPEYFGMAELGETPADDASKVVGRTVETTLAELTNDYSNQNTYKKLIFKVYRVAGDNAYTKFWRFELTREYLNSLTRRRTSKIEDIVDVTTADGYKLRVKSVVFTVRRCKTSQKRAIRAIMRQIVVEKASSLNFVQFLQECVLGKVPAEIYKNAKKIYPIRRVEIRKIELLAEPAEAETQPAVAEAVALEHHHHHH	soluble
VKFIADPSGVDVLEEVEVFALGPTEVIVVGRLEFIYHEASDEYLEKFEGKLKKGVWYGTNIAVIFTLYRPAGSMEVDKIILDNTFEEIL	not soluble
MEKSEGGDQPESAGEKEQVHQGADQQVQREKRRRSVSPDGGDVGSVKMADVVLEGASDVAVTKKRKITEEAAAAAKVNSEAITSATGPNTSTQAAASANEEDDKDKEDDKDAKKKKNRCGECRKKVGLTGFQCRCGGLYCAVHRYSDKHNCTFDYREHGAQEIRRNNPVVVGEKIQKILEHHHHHH	not soluble
MGSDKIHHHHHHMKVKLLSALNDNNVDMAQTNSQRQLAMTIFAIAGEFDQNLPLNLCLILDRSGSMHGQPIKTVIQAVEGLIDRLKVGDRISVVAFSGSVEVIIPNQVIEDPESIKSQIKSKLSASGGTAIAEGLELGITELMKGTRGAVSQAFLLTDGHGESSLRIWKWDIGRDDNKRCLKLAQKAAKLNLTINTFGFGNSWNQDLLEKIADVGGGTLAHIEHPEQAVEQFSRLFGRIQSIGLTNAYLLLSLVPNVRLAELKPIAQVAPDTIELPVERETDGSFAVRLGDLMQDVERVVLANIYLGQLPEGKQAIGHLQIRYDDPMVNQEDLLSPLMPIYADVVRAYQPASNPQVQQSILALAKYRQTQLAEAKLLQGDRTGAATMLQTAAKTALQIGDKGAATVLQTSATRLQAGEELSEADLKKTRIVSKTVLQE	not soluble
MRGSHHHHHHTDPALRANEFSILCRVLGSLYYRQPQDPLLVPLFTLIREGKLAANWPLEQDELLTRLQKSCDMTQVSADYNALFIGDECAVPPYRSAWVEGATEAEVRAFLSERGMPLADTPADHIGTLLLAASWLEDQSTEDESEALETLFSEYLLPWCGAFLGKVEAHATTPFWRTMAPLTRDAISAMWDELEEDSEEGLCGR	soluble
MAHHHHHHMAKERNLDLKALQRSKRTVAHAYDAGVRSVPPALPLDIGGALAQVLTTRVTTCFGLHLIVTAQNEDAEQQSAPSLLMDVAVRAHLERLPLPVLHRLISDLCEVRAAWKRDLLAPSAAAAVQEQALLGRESINALLYHVCLWQRRYPLELLSAVLSFYDEHKHLFSPATSERCSASVQLESLLEEVQCLQYPDLSDVPGLIRCDVFMTYPHMPLGEQRQLMHTIAAAVVHRKAAGGLQRQSSCMGTEEKYVTDNLLRHSRTPPDPRLLLRSFVVDGAAAIPERFCTDMPTQTYHEMRAAFERHKHDGVRRLAAQDYGQAVTELTPPPPPPPPQPAASSVPSS	not soluble
MDTQQIDVMVADASHEVYVDTILETIRNAAAVRGTGIAERTHEYVATKMKEGKAIIALCGDTFAGFTYIESWGNKQYVATSGLIVHPDFRGLGLAKRIKQASFQLARLRWPKAKIFSLTSGAAVMKMNTELGYVPVTFNELTDDEAFWKGCEGCTNHDILAAKNRKFCICTAMLYDPTDPRNIKKEQERNNI	not soluble
GSPGIHMLGGSSDAGLATAAARGQVETVRQLLEAGADPNALNRFGRRPIQVMMMGSAQVAELLLLHGAEPNCADPATLTRPVHDAAREGFLDTLVVLHRAGARLDVCDAWGRLPVDLAEEQGHRDIARYLHAATGD	soluble
KLGAPVKKAILEALSERDQTADICKDSKGNIEPDTQLRDTELVAFPDHLTLPLPVNYDKEPDLSKLLPLVKAHCEAYLKAEVLPHVADAWIDYSKTKVGYEIPINRHFYIYEPPRPLEEIKAEIVQLEQEIMQMLGGLSA	not soluble

Reference: the DeepSol protein solubility set
